These results are taken from patent publication US20260184773A1, “THERAPEUTIC SINGLE DOMAIN ANTIBODY” (priority 2021, published 2026).

One test concerns PANC-1 tumors. To be noted: PANC-1 xenograft, intraperitoneal for 14 days.
For test [1], the system named is tSTAT3, pSTAT3 and PD-L1 in MDA-MB-231 cells. The test is described as follows: Immunoblot (slot blot) of tSTAT3, pSTAT3 and PD-L1. To be noted: MDA-MB-231, 3, 6 and 24 hours, β-actin normalized, 50-100 ug/ml. It counts as cell-based, human. For orientation: A western blot detects proteins with antibodies after separation by electrophoresis.
For a further test, the system named is ENBOV (Ebola) in HeLa. Format: cell-based, Ebola virus.
The test system of the next test is ENBOV (Ebola) in HFF. It counts as cell-based, Ebola virus.
A further test has as its system Zika in Vero. Format: cell-based, Zika virus.
For another test, the target named is HIV-1 RT (Human immunodeficiency virus type 1 group M subtype B, UniProt P04585). The note with it: read-out: Binding affinity (KD).
The next test relates to MDA-MB-231 cells. The test is described as follows: Cell penetration by immunofluorescence/confocal microscopy. Format: cell-based, human.

For the molecule `Nc1ccn([C@@H]2O[C@H](CO)[C@@H](O)C2(F)F)c(=O)n1` [Gemcitabine, gemcitabine, reference compound], the “% Inhibition of Control, Day 12” value in the test on PANC-1 tumors (Day 12) stood at 19.51%. For the same molecule, the “% Inhibition of Control, Day 15” value with PANC-1 tumors (Day 15) amounted to 23.17%. Further, in the test with PANC-1 tumors (Day 19), the “% Inhibition of Control, Day 19” value is 23.26%. Besides, the “% Inhibition of Control, Day 22” value in the test with PANC-1 tumors (Day 22 (end of the study)) is 14.93%.

In the case of `Cc1ccc(S(=O)(=O)OCC(=O)Nc2ccc(C(=O)O)c(O)c2)cc1` [S3I-201, reference compound], the “Levels of tSTAT3, pSTAT3 and PD-L1” value in test [1] is listed as “decreased”.

B1: SBT-106 (protein)
VHH: EVQLVESGGGSVQAGGSLRLSCAASVYSYNTNCMGWFRQAPGKEREGVAVIYAAGGLTYYADSVKGRFTISQENGKNTVYLTMNRLKPEDTAMYYCAAKRWCSSWNRGEEYNYWGQGTQVTVSS
The EC50 is the concentration needed to bring the measured effect to its halfway point. Read a high EC50 as a less potent agent. In the test on ENBOV (Ebola) in HeLa, B1 showed an EC50 of 3.49 µM. For the same molecule, the Comment result in the test with ENBOV (Ebola) in HFF is on record as “Does not inhibit Ebola virus”. Besides, the “EC50 [μM]” value in the test on ENBOV (Ebola) in HFF and in the test with Zika in Vero was “No” each time.

B2: SBT-107: anti-HIV-1 Reverse Transcriptase (RT) VHH, SEQ ID NO. 4 (protein)
VHH: MGDVQLVESGGDSVRAGGSLQLSCKASGYTYNSRVDIRSMGWFRQYPGKEREGVATINIRNSVTYYADSVKGRFTISQDNAKNTVYLQMNALKPEDTAMYYCALSDRFAAQVPARYGIRPSDYNYWGEGTLVTVSSSSGLE
modifications: Camelid
The term Kd denotes a measure of binding affinity in units of concentration. As to B2, the Kd in the test with HIV-1 RT amounted to 0.00385 µM. Moreover, the “Intracellular staining/localization of VHH” value in the test on MDA-MB-231 cells was “no intracellular staining”.
